From paper PMC5435084 (Molecular Biology and Evolution, 2017) come the findings set out here.

First the molecules themselves.
B1: SRGAP2A F-BARx-RhoGAP-SH3 (residues 1-799) (domain or fragment)
chain: not shown

Where two headings read alike, the source gives them in different places.

Series [1] deals with the molecule itself. The series can be described thus: SEC. A general note: In gel filtration, larger molecules generally elute earlier.
The target of series [2] is B1. The series can be described thus: SEC-MALS.
Series [3] concerns the molecule itself. The series can be described thus: SEC. This is another data set of the same source.
Series [4] has as its target SRGAP2A RhoGAP-SH3 domains (isolated) (human, UniProt O75044 485-1071). The series is described as follows: MST.

One may read the stoichiometry N as the number of molecules, sites or subunits per partner or assembly. On to B1, for which the “stoichiometry N” value in series [1] came to 2.

B2: SRGAP2C F-BAR portion (F-BARC, SRGAP2C residues 1-355) (domain or fragment, human, UniProt P0DJJ0 1-355, looked up)
chain: MTSPAKFKKDKEIIAEYDTQVKEIRAQLTEQMKCLDQQCELRVQLLQDLQDFFRKKAEIEMDYSRNLEKLAEHFLAKTRSTKDQQFKKDQNVLSPVNCWNLLLNQVKWESRDHTTLSDIYLNNIIPRFVQVSEDSGRLFKKSKEVGQQLQDDLMKVLNELYSVMKTYHMYNADSISAQSKLKEAEKQEEKQIGKSVKQEDRQTPCSPDSTANVRIEEKHVRRSSVKKIEKMKEKHQAKYTENKLKAIKAQNEYLLALEATNASVFKYYIHDLSDLIDQCCDLGYHASLNRALRTFLSAELNLEQSKHEGLDAIENAVENLDATSDKQRLMEMYNNVFCPPMKFEFQPHMGDMASQ
B2: the binding result in series [2] is given as “binds”. Further, the “stoichiometry N” value in series [3] worked out at 2.

B3: SRGAP2A F-BAR domain (F-BARA, residues 1-355) (domain or fragment, human, UniProt O75044 1-355, looked up)
chain: MTSPAKFKKDKEIIAEYDTQVKEIRAQLTEQMKCLDQQCELRVQLLQDLQDFFRKKAEIEMDYSRNLEKLAERFLAKTRSTKDQQFKKDQNVLSPVNCWNLLLNQVKRESRDHTTLSDIYLNNIIPRFVQVSEDSGRLFKKSKEVGQQLQDDLMKVLNELYSVMKTYHMYNADSISAQSKLKEAEKQEEKQIGKSVKQEDRQTPRSPDSTANVRIEEKHVRRSSVKKIEKMKEKRQAKYTENKLKAIKARNEYLLALEATNASVFKYYIHDLSDLIDQCCDLGYHASLNRALRTFLSAELNLEQSKHEGLDAIENAVENLDATSDKQRLMEMYNNVFCPPMKFEFQPHMGDMASQ
modifications: fluorescently labeled (in the MST only)
As a reminder, the Kd is the equilibrium constant for the complex coming apart. Low readings indicate tighter binding, high ones weaker binding. With B3, the “stoichiometry N” value in series [3] amounted to 2. Besides, binding in series [4] was put at a Kd of 3 µM.

B4: SRGAP2A F-BARx (extended F-BAR, residues 1-484) (domain or fragment, human, UniProt O75044 1-484, looked up)
chain: MTSPAKFKKDKEIIAEYDTQVKEIRAQLTEQMKCLDQQCELRVQLLQDLQDFFRKKAEIEMDYSRNLEKLAERFLAKTRSTKDQQFKKDQNVLSPVNCWNLLLNQVKRESRDHTTLSDIYLNNIIPRFVQVSEDSGRLFKKSKEVGQQLQDDLMKVLNELYSVMKTYHMYNADSISAQSKLKEAEKQEEKQIGKSVKQEDRQTPRSPDSTANVRIEEKHVRRSSVKKIEKMKEKRQAKYTENKLKAIKARNEYLLALEATNASVFKYYIHDLSDLIDQCCDLGYHASLNRALRTFLSAELNLEQSKHEGLDAIENAVENLDATSDKQRLMEMYNNVFCPPMKFEFQPHMGDMASQLCAQQPVQSELVQRCQQLQSRLSTLKIENEEVKKTMEATLQTIQDIVTVEDFDVSDCFQYSNSMESVKSTVSETFMSKPSIAKRRANQQETEQFYFTKMKEYLEGRNLITKLQAKHDLLQKTLGESQRT
modifications: fluorescently labeled (in the MST only)
On to B4, for which, in series [4], the Kd came out at 3.5 µM.
